Data: patent publication US20150191517A1
Where no end group is shown, it is not given here. [ ]: non-standard residue; d: D form.

What was measured:
Experiment in all cases: cell-based or functional assay
[1] = target: Nav1.2 (rBIIa) (rat (printed only as rBIIa)) (UniProt P04775)
[2] = target: Nav1.2 (rBIIa) (rat (printed only as rBIIa)), P04775
[3] = target: human Nav1.7 alpha-subunit (human), Q15858
[4] = target: human Nav1.7 alpha-subunit (human) (UniProt Q15858)
Chain of human Nav1.7 alpha-subunit (human) (Q15858 whole entry): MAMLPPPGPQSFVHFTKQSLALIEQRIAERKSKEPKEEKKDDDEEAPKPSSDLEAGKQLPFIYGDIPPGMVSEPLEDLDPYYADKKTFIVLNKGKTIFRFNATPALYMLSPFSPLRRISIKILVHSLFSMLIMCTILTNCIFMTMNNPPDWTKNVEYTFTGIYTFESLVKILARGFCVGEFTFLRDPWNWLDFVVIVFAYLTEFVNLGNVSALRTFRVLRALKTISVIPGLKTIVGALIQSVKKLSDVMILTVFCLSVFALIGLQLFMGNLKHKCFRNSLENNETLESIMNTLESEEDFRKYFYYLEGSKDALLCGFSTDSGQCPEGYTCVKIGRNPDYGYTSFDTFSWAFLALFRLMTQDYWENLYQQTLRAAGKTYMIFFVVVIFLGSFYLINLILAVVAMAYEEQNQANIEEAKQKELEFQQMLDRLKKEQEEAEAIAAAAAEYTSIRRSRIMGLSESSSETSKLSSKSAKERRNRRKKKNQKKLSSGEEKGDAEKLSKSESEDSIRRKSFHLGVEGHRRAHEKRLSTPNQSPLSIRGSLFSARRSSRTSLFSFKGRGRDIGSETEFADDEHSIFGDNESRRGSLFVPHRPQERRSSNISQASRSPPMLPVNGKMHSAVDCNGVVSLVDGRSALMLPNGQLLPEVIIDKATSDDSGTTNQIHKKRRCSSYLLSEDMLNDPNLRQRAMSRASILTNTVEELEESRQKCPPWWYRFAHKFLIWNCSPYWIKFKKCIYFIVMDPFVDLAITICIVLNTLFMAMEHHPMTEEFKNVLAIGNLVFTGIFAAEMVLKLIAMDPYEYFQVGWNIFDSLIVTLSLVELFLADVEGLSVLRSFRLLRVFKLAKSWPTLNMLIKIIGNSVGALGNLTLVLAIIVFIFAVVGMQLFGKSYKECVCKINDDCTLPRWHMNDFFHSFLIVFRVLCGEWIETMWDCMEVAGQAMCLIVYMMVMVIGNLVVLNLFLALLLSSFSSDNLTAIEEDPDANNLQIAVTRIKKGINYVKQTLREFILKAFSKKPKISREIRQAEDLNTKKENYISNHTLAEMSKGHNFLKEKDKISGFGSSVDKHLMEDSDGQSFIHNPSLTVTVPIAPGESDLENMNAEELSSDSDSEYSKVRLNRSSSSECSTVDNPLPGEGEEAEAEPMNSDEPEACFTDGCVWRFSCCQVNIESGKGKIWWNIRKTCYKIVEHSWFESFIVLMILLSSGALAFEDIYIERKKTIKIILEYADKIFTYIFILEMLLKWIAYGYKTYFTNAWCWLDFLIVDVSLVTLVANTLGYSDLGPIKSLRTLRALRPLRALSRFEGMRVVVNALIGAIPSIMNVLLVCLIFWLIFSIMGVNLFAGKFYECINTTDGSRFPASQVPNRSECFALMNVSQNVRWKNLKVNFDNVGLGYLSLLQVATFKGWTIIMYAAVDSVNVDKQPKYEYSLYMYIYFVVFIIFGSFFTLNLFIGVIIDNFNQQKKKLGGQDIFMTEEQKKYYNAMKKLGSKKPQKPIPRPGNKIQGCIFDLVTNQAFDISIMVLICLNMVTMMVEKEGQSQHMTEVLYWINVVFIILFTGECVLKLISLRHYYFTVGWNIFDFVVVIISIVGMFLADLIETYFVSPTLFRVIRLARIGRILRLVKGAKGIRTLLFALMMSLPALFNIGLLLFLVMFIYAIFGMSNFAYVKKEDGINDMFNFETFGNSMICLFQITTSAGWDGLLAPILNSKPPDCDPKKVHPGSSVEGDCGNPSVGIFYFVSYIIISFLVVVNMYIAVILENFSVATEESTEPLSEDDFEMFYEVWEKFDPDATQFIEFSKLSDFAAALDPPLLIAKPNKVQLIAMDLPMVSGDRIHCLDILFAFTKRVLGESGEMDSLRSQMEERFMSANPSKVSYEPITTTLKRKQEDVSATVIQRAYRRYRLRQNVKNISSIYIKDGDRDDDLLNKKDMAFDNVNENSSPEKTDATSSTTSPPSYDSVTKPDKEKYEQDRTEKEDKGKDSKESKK

Chain of Nav1.2 (rBIIa) (rat (printed only as rBIIa)) (P04775 whole entry): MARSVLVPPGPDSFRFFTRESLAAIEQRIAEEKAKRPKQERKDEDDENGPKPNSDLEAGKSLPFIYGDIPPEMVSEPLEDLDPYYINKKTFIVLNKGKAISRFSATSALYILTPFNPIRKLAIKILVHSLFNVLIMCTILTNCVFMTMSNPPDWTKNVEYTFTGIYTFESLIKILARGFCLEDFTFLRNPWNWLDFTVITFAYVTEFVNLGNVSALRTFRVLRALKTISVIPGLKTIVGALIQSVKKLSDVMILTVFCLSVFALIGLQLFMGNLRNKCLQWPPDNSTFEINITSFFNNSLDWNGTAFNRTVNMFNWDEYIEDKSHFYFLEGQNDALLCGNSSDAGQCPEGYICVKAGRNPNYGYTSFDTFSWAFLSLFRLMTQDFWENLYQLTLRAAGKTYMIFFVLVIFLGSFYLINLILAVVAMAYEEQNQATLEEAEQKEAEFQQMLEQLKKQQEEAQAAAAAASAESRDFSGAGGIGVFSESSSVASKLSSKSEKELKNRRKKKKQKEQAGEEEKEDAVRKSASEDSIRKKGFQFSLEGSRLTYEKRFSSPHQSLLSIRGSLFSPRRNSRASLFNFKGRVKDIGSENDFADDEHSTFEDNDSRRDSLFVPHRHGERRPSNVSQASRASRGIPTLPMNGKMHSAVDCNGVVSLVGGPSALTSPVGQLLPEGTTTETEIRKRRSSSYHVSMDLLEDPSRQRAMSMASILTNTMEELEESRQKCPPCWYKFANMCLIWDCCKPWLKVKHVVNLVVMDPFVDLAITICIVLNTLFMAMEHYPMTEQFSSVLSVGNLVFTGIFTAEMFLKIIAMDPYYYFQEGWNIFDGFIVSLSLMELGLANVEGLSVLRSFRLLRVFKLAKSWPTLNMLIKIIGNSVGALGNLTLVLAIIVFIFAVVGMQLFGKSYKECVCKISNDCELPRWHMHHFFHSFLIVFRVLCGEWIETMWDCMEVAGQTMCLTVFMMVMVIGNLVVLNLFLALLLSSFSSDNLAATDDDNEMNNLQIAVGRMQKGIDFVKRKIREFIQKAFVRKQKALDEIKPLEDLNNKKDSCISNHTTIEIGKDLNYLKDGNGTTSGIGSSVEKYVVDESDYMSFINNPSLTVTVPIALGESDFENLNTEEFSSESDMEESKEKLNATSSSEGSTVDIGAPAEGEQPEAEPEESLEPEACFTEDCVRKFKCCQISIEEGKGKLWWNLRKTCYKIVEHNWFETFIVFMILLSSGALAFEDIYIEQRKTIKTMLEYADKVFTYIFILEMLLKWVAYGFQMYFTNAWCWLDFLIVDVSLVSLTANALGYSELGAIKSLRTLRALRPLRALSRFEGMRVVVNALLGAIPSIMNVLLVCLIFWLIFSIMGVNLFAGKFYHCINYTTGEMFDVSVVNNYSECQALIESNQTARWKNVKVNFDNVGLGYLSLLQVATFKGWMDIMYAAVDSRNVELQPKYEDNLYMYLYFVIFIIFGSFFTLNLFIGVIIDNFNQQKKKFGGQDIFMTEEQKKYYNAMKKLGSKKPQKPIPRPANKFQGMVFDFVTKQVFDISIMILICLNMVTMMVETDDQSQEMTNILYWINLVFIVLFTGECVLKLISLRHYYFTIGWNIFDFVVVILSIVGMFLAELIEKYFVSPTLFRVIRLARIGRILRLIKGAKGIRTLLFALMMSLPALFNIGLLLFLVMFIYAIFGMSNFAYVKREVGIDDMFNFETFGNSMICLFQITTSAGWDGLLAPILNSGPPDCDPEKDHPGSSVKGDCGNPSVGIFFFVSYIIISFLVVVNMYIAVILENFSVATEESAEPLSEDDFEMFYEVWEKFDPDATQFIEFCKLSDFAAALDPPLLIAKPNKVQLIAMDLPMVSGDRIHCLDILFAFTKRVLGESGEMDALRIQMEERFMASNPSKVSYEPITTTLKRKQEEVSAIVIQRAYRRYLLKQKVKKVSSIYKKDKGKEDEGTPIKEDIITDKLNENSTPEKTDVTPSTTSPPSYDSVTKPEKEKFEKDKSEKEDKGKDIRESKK
Chain of human Nav1.7 alpha-subunit (human), Q15858 (Q15858 whole entry): as the sequence (Q15858 whole entry) above
Chain of Nav1.2 (rBIIa) (rat (printed only as rBIIa)), P04775 (P04775 whole entry): as the sequence (P04775 whole entry) above

Row | Molecule | Nav1.2 IC50 (nM), EP (electrophysiology) sodium channel blocking activity [1] [nM] | Nav1.2 IC50 (nM), FLIPR sodium channel blocking activity [1] [nM] | Nav1.2 IC50 (nM), FLIPR sodium channel blocking activity [2] [nM] | Nav1.7 IC50 (nM), FLIPR sodium channel blocking activity [3] [nM] | Nav1.7 IC50 (nM), FLIPR sodium channel blocking activity [4] [nM]
1 | Protoxin II (peptide) | 100 | 379 | – | – | –
2 | YCQKWMWTCDSERKCCEGMVCRLWCKKKL[dW]-NHcyclohexyl (ends and bridges not checked) [Protoxin II (D)-NHcyclohexyl] | – | – | 336 | 31 | –
3 | YCQKWMWTCDSERKCCEGMVCRLWCKKKLWW (not fully specified; ends and bridges not checked) [Protoxin II-D-Trp] | – | 102 | – | – | 16.5
